These results are taken from article PMC12865202 (2026).

This experiment has as its target Chicken CapZ (full length α/β) (chicken, UniProt P13127 1-286; P14315 1-277). Briefly: ITC. A general note: In ITC the heat of successive injections is recorded.

As usually defined, the Kd is the constant that tells how readily two partners part at equilibrium. Read a high Kd as a looser complex. In the case of SKREETKLTHFVRERAQGPRGRRLPAHLQAKIKRVSLDKPH [RavB^108-148 synthetic peptide], the Kd is 170 nM.
